This is an account of results in article PMC12739106, “Phosphate deficiency reduces nodule formation through a phosphate starvation response-like protein in Phaseolus vulgaris”.

The data set deals with T1, PvPHR-L7 (formerly PvPHR1) (Phaseolus vulgaris, UniProt B4YEQ7 1-327).
T1 sequence: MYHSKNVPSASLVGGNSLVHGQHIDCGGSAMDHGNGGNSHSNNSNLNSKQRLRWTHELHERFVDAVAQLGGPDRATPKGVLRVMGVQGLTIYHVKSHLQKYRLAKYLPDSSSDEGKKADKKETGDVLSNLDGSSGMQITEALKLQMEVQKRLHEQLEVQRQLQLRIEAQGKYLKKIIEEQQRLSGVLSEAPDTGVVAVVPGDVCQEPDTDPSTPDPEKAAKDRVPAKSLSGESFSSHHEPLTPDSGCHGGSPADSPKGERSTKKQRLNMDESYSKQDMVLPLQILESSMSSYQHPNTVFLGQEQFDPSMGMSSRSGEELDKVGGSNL
Put plainly: EMSA; poly(dI-dC); outcompeted by unlabeled same-sequence probe (50, 100 or 200 nM); LightShift Chemiluminescent EMSA kit, 1x binding buffer, 50 ng/ul poly(dI-dC), 1 unit protein, 0.1 'mmol' biotin probe, unlabeled competitor 5, 10, 20 'mmol' (legend: 50, 100, 200 nM); salt, pH and temperature not stated. The settings on record: protein: recombinant; tags: His (pDEST17, N-terminal); chain copies: 2; 5' implied by name; blunt. (In general: In EMSA bound probe runs differently from free probe, usually more slowly.)

B1: PvTML promoter P1BS probe (dsDNA)
DNA 1: GAAATTAATATAAAAAGCATATACTAAAATTAAGCATATGTT
DNA 2: AACATATGCTTAATTTTAGTATATGCTTTTTATATTAATTTC
Consider B1, for which the binding result was “binds”.

B2: PvNIN promoter P1BS probe (dsDNA)
DNA 1: CAATTTCATTCTATAGCATATGCAACATTTTAGACAAAATCA
DNA 2: TGATTTTGTCTAAAATGTTGCATATGCTATAGAATGAAATTG
In the case of B2, the binding result was “binds”.
